What was measured:
[1] = target: T1, Drosophila Pum RNA-binding domain (amino acids 1091–1426), crystallisation construct (Drosophila melanogaster) (UniProt P25822)
T1 sequence: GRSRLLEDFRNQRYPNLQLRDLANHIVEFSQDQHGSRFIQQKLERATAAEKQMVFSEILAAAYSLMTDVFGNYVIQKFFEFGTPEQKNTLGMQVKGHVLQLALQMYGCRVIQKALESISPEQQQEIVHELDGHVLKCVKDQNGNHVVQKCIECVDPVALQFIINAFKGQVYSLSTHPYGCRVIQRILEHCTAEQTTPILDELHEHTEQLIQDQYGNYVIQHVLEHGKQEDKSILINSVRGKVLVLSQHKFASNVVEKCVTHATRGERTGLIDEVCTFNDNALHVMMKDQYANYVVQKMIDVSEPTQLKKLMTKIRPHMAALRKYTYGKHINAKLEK

[2] = target: T2, Pum RNA-binding domain (crystal) (UniProt P25822 1091-1426); experiment: X-ray crystallography; 1.14 A; EMSA: 50 mM Tris-HCl pH 7.6, 150 mM NaCl, 2 mM DTT, 2 ug/mL BSA, 0.01% Igepal CA-630, 0.02% bromophenol blue, 20% glycerol, 3 h at 4 C; 1 nM Cy5 RNA or 0.3 nM 32P RNA; details: protein: recombinant; tags: His6-SUMO removed by Ulp1
T2 sequence: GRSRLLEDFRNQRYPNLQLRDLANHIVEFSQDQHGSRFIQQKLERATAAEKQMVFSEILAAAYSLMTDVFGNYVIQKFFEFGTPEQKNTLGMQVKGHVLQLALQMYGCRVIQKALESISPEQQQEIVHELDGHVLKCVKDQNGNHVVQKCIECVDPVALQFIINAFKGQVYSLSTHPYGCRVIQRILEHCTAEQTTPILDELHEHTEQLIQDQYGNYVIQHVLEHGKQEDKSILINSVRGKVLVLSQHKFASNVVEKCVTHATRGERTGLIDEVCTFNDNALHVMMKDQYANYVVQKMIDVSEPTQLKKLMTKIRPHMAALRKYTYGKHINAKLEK

Pum PUM-HD WT (EMSA) [3] = target: T3, Pum PUM-HD WT (EMSA) (UniProt P25822 1091-1426); experiment: EMSA; no stable binary complex; EMSA: 50 mM Tris-HCl pH 7.6, 150 mM NaCl, 2 mM DTT, 2 ug/mL BSA, 0.01% Igepal CA-630, 0.02% bromophenol blue, 20% glycerol, 3 h at 4 C; 1 nM Cy5 RNA or 0.3 nM 32P RNA; details: protein: recombinant; tags: N-terminal 3xFLAG; Halo-tag removed by TEV; label: 5' 32P
T3 sequence: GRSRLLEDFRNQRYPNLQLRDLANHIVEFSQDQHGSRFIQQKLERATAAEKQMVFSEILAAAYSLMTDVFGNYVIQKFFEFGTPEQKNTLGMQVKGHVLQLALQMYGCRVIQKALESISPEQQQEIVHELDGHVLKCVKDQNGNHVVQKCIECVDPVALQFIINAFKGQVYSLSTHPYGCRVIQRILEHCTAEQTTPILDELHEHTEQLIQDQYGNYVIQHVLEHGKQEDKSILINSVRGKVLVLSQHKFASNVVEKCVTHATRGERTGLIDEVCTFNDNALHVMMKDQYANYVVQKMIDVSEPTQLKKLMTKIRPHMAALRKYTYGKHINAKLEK

[4] = target: T4, Pum PUM-HD WT (EMSA);Nos ZC WT (EMSA) (Drosophila melanogaster?;Drosophila …, UniProt P25822;P25724 1091-1426;289-401, |); experiment: EMSA; 1 uM Nos ZC; Kd only in figure; EMSA: 50 mM Tris-HCl pH 7.6, 150 mM NaCl, 2 mM DTT, 2 ug/mL BSA, 0.01% Igepal CA-630, 0.02% bromophenol blue, 20% glycerol, 3 h at 4 C; 1 nM Cy5 RNA or 0.3 nM 32P RNA; details: protein: recombinant;recombinant, tags: N-terminal 3xFLAG, Halo-tag removed by TEV;C-terminal V5, copies: 1;1, label: 5' 32P
T4 sequence 1: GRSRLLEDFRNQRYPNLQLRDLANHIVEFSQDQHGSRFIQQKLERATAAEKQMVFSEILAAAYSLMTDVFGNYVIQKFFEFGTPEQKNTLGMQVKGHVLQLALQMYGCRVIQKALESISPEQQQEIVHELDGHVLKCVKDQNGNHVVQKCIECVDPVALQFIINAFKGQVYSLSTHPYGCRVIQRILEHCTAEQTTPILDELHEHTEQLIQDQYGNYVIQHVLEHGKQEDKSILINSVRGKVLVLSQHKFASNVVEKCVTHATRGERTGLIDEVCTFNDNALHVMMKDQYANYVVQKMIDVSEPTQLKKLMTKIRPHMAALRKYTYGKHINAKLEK
T4 sequence 2: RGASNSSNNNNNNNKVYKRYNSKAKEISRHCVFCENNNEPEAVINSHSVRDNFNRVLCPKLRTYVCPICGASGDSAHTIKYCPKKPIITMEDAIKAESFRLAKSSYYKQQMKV

Pum PUM-HD WT (EMSA) [5] = target: T3, Pum PUM-HD WT (EMSA); experiment: EMSA; no stable binding; EMSA: 50 mM Tris-HCl pH 7.6, 150 mM NaCl, 2 mM DTT, 2 ug/mL BSA, 0.01% Igepal CA-630, 0.02% bromophenol blue, 20% glycerol, 3 h at 4 C; 1 nM Cy5 RNA or 0.3 nM 32P RNA; details: protein: recombinant; tags: N-terminal 3xFLAG; Halo-tag removed by TEV; label: 5' 32P
[6] = target: T4, Pum PUM-HD WT (EMSA);Nos ZC WT (EMSA); experiment: EMSA; Pum titrated, 1 uM Nos ZC constant; EMSA: 50 mM Tris-HCl pH 7.6, 150 mM NaCl, 2 mM DTT, 2 ug/mL BSA, 0.01% Igepal CA-630, 0.02% bromophenol blue, 20% glycerol, 3 h at 4 C; 1 nM Cy5 RNA or 0.3 nM 32P RNA; details: protein: recombinant;recombinant, tags: N-terminal 3xFLAG, Halo-tag removed by TEV;C-terminal V5, copies: 1;1, label: 5' 32P
[7] = target: T5, Pum RNA-binding domain (crystal);Nos ZF domain (crystal) (Drosophila melanogaster?;Drosophila …, UniProt P25822;P25724 1091-1426;289-401, |); experiment: X-ray crystallography; 4.0 A; Zn2+; EMSA: 50 mM Tris-HCl pH 7.6, 150 mM NaCl, 2 mM DTT, 2 ug/mL BSA, 0.01% Igepal CA-630, 0.02% bromophenol blue, 20% glycerol, 3 h at 4 C; 1 nM Cy5 RNA or 0.3 nM 32P RNA; details: protein: recombinant;recombinant; tags: His6-SUMO removed by Ulp1;His6-SUMO removed by Ulp1; copies: 1;1
T5 sequence 1: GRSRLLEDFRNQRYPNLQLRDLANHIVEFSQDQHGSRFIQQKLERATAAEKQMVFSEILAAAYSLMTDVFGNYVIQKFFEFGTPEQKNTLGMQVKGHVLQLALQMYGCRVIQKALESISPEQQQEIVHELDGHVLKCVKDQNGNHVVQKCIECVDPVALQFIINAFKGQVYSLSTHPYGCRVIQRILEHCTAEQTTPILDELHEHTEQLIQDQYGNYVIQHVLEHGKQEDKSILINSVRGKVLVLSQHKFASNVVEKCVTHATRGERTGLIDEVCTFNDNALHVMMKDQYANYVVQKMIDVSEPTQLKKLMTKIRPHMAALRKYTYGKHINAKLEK
T5 sequence 2: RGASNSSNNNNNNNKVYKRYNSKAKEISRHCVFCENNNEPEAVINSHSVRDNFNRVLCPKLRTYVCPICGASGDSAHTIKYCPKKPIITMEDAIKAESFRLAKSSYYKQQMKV

Pum PUM-HD WT (EMSA) [8] = target: T3, Pum PUM-HD WT (EMSA); experiment: EMSA; EMSA: 50 mM Tris-HCl pH 7.6, 150 mM NaCl, 2 mM DTT, 2 ug/mL BSA, 0.01% Igepal CA-630, 0.02% bromophenol blue, 20% glycerol, 3 h at 4 C; 1 nM Cy5 RNA or 0.3 nM 32P RNA; details: protein: recombinant; tags: N-terminal 3xFLAG; Halo-tag removed by TEV
Pum PUM-HD WT (EMSA) [9] = target: T3, Pum PUM-HD WT (EMSA); experiment: EMSA; no stable complex, Pum up to 1 uM; EMSA: 50 mM Tris-HCl pH 7.6, 150 mM NaCl, 2 mM DTT, 2 ug/mL BSA, 0.01% Igepal CA-630, 0.02% bromophenol blue, 20% glycerol, 3 h at 4 C; 1 nM Cy5 RNA or 0.3 nM 32P RNA; details: protein: recombinant; tags: N-terminal 3xFLAG; Halo-tag removed by TEV; label: 5' 32P

B1: Halo-Nos Δ383–393 (aa1-382 + 394–401) (natural protein)
chain: MFRSNLEGSGAAADNFSAFHARGGLNILGLQDMYLDTSGANSSATLSPPITPVTPDPSTSAQSTHFPFLADSAATANSLLMQRQYHYHLLLQQQQQLAMAQHQLALAASAAAASASHQQTDEIARSLKIFAQVTTGAAENAAGSMQDVMQEFATNGYASDDLGRMSYGSAPPQVQMPPQQQHQQQQGLHLPLGRNPAQLQTNGGNLMPIPLATHWLNNYREHLNNVWRNMSYIPAAPNTMGLQAQTAATVSTNLGVGMGLGLPVQGEQLRGASNSSNNNNNNNKVYKRYNSKAKEISRHCVFCENNNEPEAVINSHSVRDNFNRVLCPKLRTYVCPICGASGDSAHTIKYCPKKPIITMEDAIYYKQQMKV
With B1 as the binder, how does the percent repression of the RnLuc WT hb 3´UTR reporter in D.mel-2 cells (endogenous Pum), against Halo-tag alone [1] read?
Its percent repression of the RnLuc WT hb 3´UTR reporter in D.mel-2 cells (endogenous Pum), against Halo-tag alone is 43%.

Does UGUACAUA (ssRNA) [hb PRE2 RNA 8-nt] bind [2]?
Result: binds

What does the source list for GAAUUGUAUAUAUUCG (ssRNA) [hb NRE1 RNA]?
binding result (Pum PUM-HD WT (EMSA) [3]): no binding; binding result [4]: binds

What does the source list for UGAUUGUAGAUAUCUA (ssRNA) [bcd NRE RNA]?
binding result (Pum PUM-HD WT (EMSA) [3]): no binding; binding result [4]: binds

What does the source list for AAAUUGGACAUAAGCC (ssRNA) [hb NRE2 +3G RNA]?
binding result (Pum PUM-HD WT (EMSA) [5]): no binding; Kd [6]: 59.9 nM

Does UAUUUGUAAUUUAU (ssRNA) [CycB NRE RNA 14-nt (crystal)] bind [7]?
Result: binds

Does AAACUGUACAUAAGCC (ssRNA) [hb NRE2 -1C RNA] bind (Pum PUM-HD WT (EMSA) [8])?
Result: binds

B2: Halo-Nos Δ376–382 (aa1-375 + 383–401) (natural protein)
chain: MFRSNLEGSGAAADNFSAFHARGGLNILGLQDMYLDTSGANSSATLSPPITPVTPDPSTSAQSTHFPFLADSAATANSLLMQRQYHYHLLLQQQQQLAMAQHQLALAASAAAASASHQQTDEIARSLKIFAQVTTGAAENAAGSMQDVMQEFATNGYASDDLGRMSYGSAPPQVQMPPQQQHQQQQGLHLPLGRNPAQLQTNGGNLMPIPLATHWLNNYREHLNNVWRNMSYIPAAPNTMGLQAQTAATVSTNLGVGMGLGLPVQGEQLRGASNSSNNNNNNNKVYKRYNSKAKEISRHCVFCENNNEPEAVINSHSVRDNFNRVLCPKLRTYVCPICGASGDSAHTIKYCPKKPIKAESFRLAKSSYYKQQMKV
How did the percent repression of the RnLuc WT hb 3´UTR reporter in D.mel-2 cells (endogenous Pum), against Halo-tag alone [1] turn out when B2 was run?
The percent repression of the RnLuc WT hb 3´UTR reporter in D.mel-2 cells (endogenous Pum), against Halo-tag alone was 27%.

Does UAUUUGUAAUUUAUAUC (ssRNA) [CycB NRE RNA (EMSA)] bind (Pum PUM-HD WT (EMSA) [9])?
Result: no binding

And the Kd [6]?
The Kd was 12 nM.
